Experimental data: patent publication US20160137714A1 (Thrasos Innovation, Inc., priority 2014, published 2016)
Positions of bridges follow the written chain, without caps; N, C: chain ends. Non-standard residues stand in square brackets, D forms with d. Residues, ends and D or L forms follow the SMILES beside them. No end group written: not given here. *: point of attachment. Hydrocinnamoyl = O=C(CCc1ccccc1)*; NMeR = CN[C@@H](CCCNC(=N)N)C(=O)O; Pyrazinecarbonyl = O=C(c1cnccn1)*; dNMeR = CN[C@H](CCCNC(=N)N)C(=O)O

Key:
FIGURE 31 (1/2) = assay: FIGURE 31 (1/2)
Protocol: Table printed on a drawing sheet, FIGURE 31 (1/2)
Peptide to internal standard peak area ratios were used calculate percentage remaining peptide at 60 minutes and 120 minutes. Peptides are identified by GPR number (GPR#) and SEQ ID NO.
First reader's note: First of two sheets of FIGURE 31; the table continues on sheet 2/2, and the meaning of the asterisks is not printed on this sheet.

Ex-vivo plasma stability = assay type: in vitro ADME, mouse or rat; conditions: for remaining at 1 h / remaining at 2 h: fresh plasma 37° C., 1 μM; for remaining at 1 h: 60 min, read-out: Percent remaining 60 min; for remaining at 2 h: 120 min, read-out: Percent remaining 120 min
Protocol: Test article is added to fresh mouse or rat plasma at a final in-vial concentration of 1 μM. The peptide is incubated in a water bath at 37° C. over a time course that included the following points (in minutes): 0, 15, 30, 60, 120, 240, and 1440. After the incubation time is completed, a 50 μL aliquot of plasma is removed and proteins are precipitated using a solution containing internal standard (THR-123 at 150 ng/mL) in methanol with 0.5% acetic acid (v/v). The samples are centrifuged at 13,000 RPM for 5 minutes, and a 100 μL aliquot of supernatant is removed and transferred to a 96-well plate containing 200 μL of reconstitution solution (Water/MeOH/Acetic Acid/TFA, 60/40/0.2/0.05, v/v/v/v). A calibration curve and quality control (QC) samples are prepared in parallel in the same manner as the incubation samples. The calibration range for this assay is from 0.02 to 2.0 μM in rat or mouse plasma. The extracted calibrants, QC, and incubation samples are injected onto an AB SCIEX API 2000 LC-MS/MS system. Chromatographic separation is performed using a reversed-phase C18 HPLC column (Ace-3 C18, 30×2.1 mm, 3 μm). The solvent system consists of Milli-Q water, acetonitrile and formic acid. Analyte and internal standard are detected using the multiple reaction monitoring (MRM) scan mode. Calibration curves are generated by using a weighted (1/concentration) quadratic regression analysis of the peak area ratios (analyte/internal standard) versus the nominal concentration of the calibration standards. The concentration of the analyte in the incubation samples is determined by back-calculating the peak area ratios obtained using the quadratic regression.

Compound	% Remaining at 60 and 120 minutes | 60 (FIGURE 31 (1/2))	% Remaining at 60 and 120 minutes | 120 (FIGURE 31 (1/2))	remaining at 1 h (Ex-vivo plasma stability)	remaining at 2 h (Ex-vivo plasma stability)	stability toward plasma proteolytic cleavage (Ex-vivo plasma stability; versus THR-123, rat plasma (FIGS. 3 and 4))
Cys-Tyr-Phe-Asp-Asp-Ser-Ser-Asn-Ala-Leu-Cys-Lys-Lys-Tyr-(Me)(D)Arg-Ser (CYFDDSSNALCKKY[dNMeR]S-OH; disulfide 1-11 (inferred)) [SEQ ID NO:42]	100.0%	94.0%	–	–	–
Cys-Tyr-Phe-Nal-Asp-Ser-Ser-Asn-Val-Leu-Cys-Lys-Lys-(D)Tyr-Arg-Ser (CYF[Nal]DSSNVLCKK[dY]RS-OH; disulfide 1-11 (inferred)) [SEQ ID NO:48]	93.33%	97.49%	–	–	–
[N-terminal: Pirazinyl-CO-]Cys-Tyr-Phe-Asp-Asp-Ser-Ser-Asn-Val-Leu-Cys-Lys-Lys-(D)Tyr-Arg-Ser (Pyrazinecarbonyl-CYFDDSSNVLCKK[dY]RS-OH; disulfide 1-11 (inferred)) [SEQ ID NO:34]	66.2%	78.7%	–	–	–
Cys-Tyr-Phe-Asp-Asp-Asn-Ser-Asn-Val-Leu-Cys-Arg-Lys-Tyr-(Me)(D)Arg-Ser (CYFDDNSNVLCRKY[dNMeR]S-OH; disulfide 1-11 (inferred)) [SEQ ID NO:38]	90.4%	84.2%	–	–	–
CC(C)C[C@@H]1NC(=O)[C@H](C(C)C)NC(=O)[C@H](CC(N)=O)NC(=O)[C@H](CO)NC(=O)[C@H](CO)NC(=O)[C@H](CC(=O)O)NC(=O)[C@H](CC(=O)O)NC(=O)[C@H](Cc2ccccc2)NC(=O)[C@H](Cc2ccc(O)cc2)NC(=O)[C@@H](NC(=O)CCc2ccccc2)CSSC[C@@H](C(=O)N[C@@H](CCCCN)C(=O)N[C@@H](CCCCN)C(=O)N[C@@H](Cc2ccc(O)cc2)C(=O)N[C@@H](CCCNC(=N)N)C(=O)N[C@@H](CO)C(=O)O)NC1=O [SEQ ID NO:31, [N-terminal: Phenyl-CH2-CH2-CO-]Cys-Tyr-Phe-Asp-Asp-Ser-Ser-Asn-Val-Leu-Cys-Lys-Lys-Tyr-Arg-Ser] (Hydrocinnamoyl-CYFDDSSNVLCKKYRS-OH; disulfide 1-11)	26.6%	11.8%	–	–	–
CC(C)C[C@@H]1NC(=O)[C@H](C(C)C)NC(=O)[C@H](CC(N)=O)NC(=O)[C@H](CO)NC(=O)[C@H](CO)NC(=O)[C@H](CC(=O)O)NC(=O)[C@H](CC(=O)O)NC(=O)[C@H](Cc2ccccc2)NC(=O)[C@H](Cc2ccc(O)cc2)NC(=O)[C@@H](NC(=O)CCc2ccccc2)CSSC[C@@H](C(=O)N[C@@H](CCCCN)C(=O)N[C@@H](CCCCN)C(=O)N[C@H](Cc2ccc(O)cc2)C(=O)N[C@@H](CCCNC(=N)N)C(=O)N[C@@H](CO)C(=O)O)NC1=O [SEQ ID NO:32, [N-terminal: Phenyl-CH2-CH2-CO-]Cys-Tyr-Phe-Asp-Asp-Ser-Ser-Asn-Val-Leu-Cys-Lys-Lys-(D)Tyr-Arg-Ser] (Hydrocinnamoyl-CYFDDSSNVLCKK[dY]RS-OH; disulfide 1-11)	82.0%	91.0%	–	–	–
Cys-Tyr-Phe-Asp-Asp-Ser-Ser-Asn-Thr-Leu-Cys-Lys-Lys-Tyr-(Me)(D)Arg-Ser (CYFDDSSNTLCKKY[dNMeR]S-OH; disulfide 1-11 (inferred)) [SEQ ID NO:40]	106.0%	99.2%	–	–	–
[N-terminal: Pirazinyl-CO-]Cys-Tyr-Phe-Asp-Asp-Ser-Ser-Asn-Val-Leu-Cys-Lys-Lys-Tyr-Arg-Ser (Pyrazinecarbonyl-CYFDDSSNVLCKKYRS-OH; disulfide 1-11 (inferred)) [SEQ ID NO:33]	44.3%	23.6%	–	–	–
Cys-Tyr-Phe-Nal-Asp-Ser-Ser-Asn-Val-Leu-Cys-Lys-Lys-Tyr-Arg-Ser (CYF[Nal]DSSNVLCKKYRS-OH; disulfide 1-11 (inferred)) [SEQ ID NO:47]	9.0%	8.2%	–	–	–
CYFDDSSNVKCKK[dA]RS (cysteine pairing not given here) [SEQ ID NO:28]	75.3%	90.2%	–	–	–
CC(C)C[C@@H]1NC(=O)[C@H](C(C)C)NC(=O)[C@H](CC(N)=O)NC(=O)[C@H](CO)NC(=O)[C@H](CO)NC(=O)[C@H](CC(=O)O)NC(=O)[C@H](CC(=O)O)NC(=O)[C@H](Cc2ccccc2)NC(=O)[C@H](Cc2ccc(O)cc2)NC(=O)[C@@H](N)CSSC[C@@H](C(=O)N[C@@H](CCCCN)C(=O)N[C@@H](CCCNC(=N)N)C(=O)N[C@H](Cc2ccc(O)cc2)C(=O)N[C@@H](CCCNC(=N)N)C(=O)N[C@@H](CO)C(=O)O)NC1=O [GPR-397, Cys-Tyr-Phe-Asp-Asp-Ser-Ser-Asn-Val-Leu-Cys-Lys-Arg-D-tyr-Arg-Ser] (H-CYFDDSSNVLCKR[dY]RS-OH; disulfide 1-11)	–	–	92%	89.3%	–
CC(C)C[C@@H]1NC(=O)[C@H](C(C)C)NC(=O)[C@H](CC(N)=O)NC(=O)[C@H](CO)NC(=O)[C@H](CO)NC(=O)[C@H](CC(=O)O)NC(=O)[C@H](CC(=O)O)NC(=O)[C@H](Cc2ccccc2)NC(=O)[C@H](Cc2ccc(O)cc2)NC(=O)[C@@H](N)CSSC[C@@H](C(=O)N[C@@H](CCCCN)C(=O)N[C@@H](CCCCN)C(=O)N[C@@H](Cc2ccc(O)cc2)C(=O)N(C)[C@@H](CCCNC(=N)N)C(=O)N[C@@H](CO)C(=O)O)NC1=O [GPR-396, Cys-Tyr-Phe-Asp-Asp-Ser-Ser-Asn-Val-Leu-Cys-Lys-Lys-Tyr-(Na-Me)Arg-Ser] (H-CYFDDSSNVLCKKY[NMeR]S-OH; disulfide 1-11)	–	–	91%	82.4%	enhanced
Cys-Tyr-Tyr-Phe-Ser-Ser-Ser-Phe-Val-Leu-Cys-Lys-Arg-Tyr-(Me)(D)Arg-Ser (CYYFSSSFVLCKRY[dNMeR]S-OH; disulfide 1-11 (inferred)) [SEQ ID NO:44]	74.3%	57.5%	–	–	–
